The values below come from the Human Domainome abundance scans (Beltran et al. 2025).

± gives the uncertainty stated by the source.

To fix the notation:
B1: Cold shock protein CspB, residues 1 to 66; numbered along this chain, P41016 (parent)
chain: MQRGKVKWFNNEKGYGFIEVEGGSDVFVHFTAIQGEGFKTLEEGQEVSFEIVQGNRGPQAANVVKL

In this data set the parent is B1. Put plainly: abundance fitness (aPCA) (normalised: wild type 0, dead -1); higher = more abundant; growth selection in yeast, the domain comes from the species named. As to conditions: Bacillus caldolyticus.
Regarding V6F, the abundance fitness is -0.622 ± 0.051. In the case of V6Q, the abundance fitness was -0.824 ± 0.066. In the case of V6H it was -0.863 ± 0.084. In the case of V6R it was -0.971 ± 0.052; in that of V6I, -0.017 ± 0.04. As for V6L, the figure is -0.158 ± 0.03; as for V6M, -0.104 ± 0.059; as for V6E, -1.02 ± 0.091. As for V6A, the abundance fitness was -0.088 ± 0.035. In the case of V6P, the abundance fitness was -0.801 ± 0.081. Consider V6S, for which the abundance fitness was -0.324 ± 0.036.

Regarding V6C, the abundance fitness was -0.058 ± 0.059. As for V6G, the figure is -0.452 ± 0.026.

For V6W, the abundance fitness is -0.756 ± 0.058. Turning to V6T, the abundance fitness is -0.002 ± 0.048. In the case of V6D it was -1.09 ± 0.11. Turning to W8R, the abundance fitness was -0.075 ± 0.42. As for W8C, the figure is -0.046 ± 0.12; as for W8G, -0.304 ± 0.2. Regarding N10W, the abundance fitness is -0.122 ± 0.037. As for N10K, the figure is -0.038 ± 0.056; as for N10S, 0.01 ± 0.034. As for N10Q, the figure is -0.025 ± 0.049. As for N10D, the figure is -0.086 ± 0.061.

As for N10T, the abundance fitness is -0.118 ± 0.051. In the case of N10R it was -0.031 ± 0.028. For N10I, the abundance fitness was -0.023 ± 0.074. Turning to N10Y, the abundance fitness is -0.214 ± 0.062. In the case of N10E it was -0.079 ± 0.051.

As for N10L, the abundance fitness was -0.069 ± 0.032. In the case of N10C it was -0.027 ± 0.048. In the case of N10M it was -0.083 ± 0.053. On to N10A, for which the abundance fitness was -0.047 ± 0.034.

Turning to N10F, the abundance fitness was -0.132 ± 0.061. As for N10P, the figure is -0.792 ± 0.053. As for K13S, the figure is -0.044 ± 0.038; as for K13N, -0.106 ± 0.068; as for K13P, -0.154 ± 0.036. As for K13W, the abundance fitness was -0.089 ± 0.043. In the case of K13I it was -0.065 ± 0.056; in that of K13E, -0.133 ± 0.05. In the case of K13Q it was -0.072 ± 0.052; in that of K13F, -0.1 ± 0.057; in that of K13C, -0.071 ± 0.062.

K13Y: the abundance fitness is -0.03 ± 0.083. K13M: the abundance fitness is -0.019 ± 0.042. As for K13H, the figure is 0 ± 0.084; as for K13D, -0.09 ± 0.048. As for K13G, the figure is -0.131 ± 0.043; as for K13A, -0.078 ± 0.058.

Take K13L: the abundance fitness was determined as 0.014 ± 0.027.

K13R: the abundance fitness was -0.007 ± 0.037. Turning to K13V, the abundance fitness was -0.044 ± 0.045. In the case of N11D it was 0.028 ± 0.06.

Regarding N11I, the abundance fitness was -0.065 ± 0.083.

Regarding N11F, the abundance fitness is -0.052 ± 0.07.

As to N11Q, the abundance fitness was -0.138 ± 0.063.

On to N11R, for which the abundance fitness is -0.017 ± 0.038.

N11M: the abundance fitness was -0.042 ± 0.048. For the variant N11H, the abundance fitness was -0.027 ± 0.07. In the case of N11G it was -0.071 ± 0.038; in that of N11C, -0.051 ± 0.054. N11S: the abundance fitness was -0.033 ± 0.039. In the case of N11A it was -0.052 ± 0.046; in that of N11K, -0.047 ± 0.078; in that of N11L, -0.003 ± 0.036. As for N11Y, the figure is -0.111 ± 0.074.

With N11T, the abundance fitness is -0.025 ± 0.044. In the case of N11E it was -0.027 ± 0.068; in that of G22I, -0.027 ± 0.059; in that of G22R, -0.011 ± 0.034. On to G22M, for which the abundance fitness is -0.01 ± 0.047. Regarding G22F, the abundance fitness is -0.016 ± 0.06. For the variant G22Y, the abundance fitness is -0.063 ± 0.062. G22W: the abundance fitness was -0.019 ± 0.036. As for G22Q, the figure is -0.035 ± 0.058; as for G22S, 0.011 ± 0.035; as for G22E, -0.013 ± 0.054. In the case of G22C it was 0.02 ± 0.057. As for G22L, the abundance fitness is -0.012 ± 0.028. In the case of G22V it was -0.02 ± 0.033. With G22T, the abundance fitness was determined as 0.025 ± 0.048. E19D: the abundance fitness is 0.006 ± 0.072. As for E19L, the figure is 0.019 ± 0.033. In the case of E19V it was 0.002 ± 0.044; in that of E19W, -0.011 ± 0.044; in that of E19K, 0.031 ± 0.078.

Regarding E19P, the abundance fitness was -0.316 ± 0.037.

As for E19M, the abundance fitness was 0 ± 0.043.

On to E19F, for which the abundance fitness is -0.048 ± 0.05. In the case of E19H it was 0.016 ± 0.073. Turning to E19G, the abundance fitness turned out to be 0.023 ± 0.039. As to E19A, the abundance fitness stood at 0.05 ± 0.052. With E19I, the abundance fitness is -0.021 ± 0.059. As for E19T, the figure is -0.029 ± 0.064; as for E19R, 0.008 ± 0.037. As to E19Q, the abundance fitness amounted to 0.009 ± 0.057. Regarding E19C, the abundance fitness was 0.021 ± 0.06. With E19Y, the abundance fitness was -0.075 ± 0.057. In the case of E19S it was 0.016 ± 0.031.

Take E19N: the abundance fitness is -0.003 ± 0.083.

With G14V, the abundance fitness is -0.778 ± 0.04.

As for G14S, the abundance fitness is -0.123 ± 0.029.

In the case of G14A, the abundance fitness is -0.175 ± 0.035.

As to G14F, the abundance fitness was -0.484 ± 0.06. In the case of G14P it was -0.91 ± 0.073. As for G14D, the figure is -0.468 ± 0.059; as for G14K, -0.06 ± 0.061. As for G14R, the figure is -0.062 ± 0.031; as for G14C, -0.13 ± 0.081. As for G14Q, the abundance fitness is -0.196 ± 0.044. In the case of G14H it was -0.047 ± 0.072. In the case of G14I it was -0.902 ± 0.077. For G14M, the abundance fitness is -0.202 ± 0.053.

With G14E, the abundance fitness is -0.359 ± 0.032.

As for G14T, the abundance fitness is -0.383 ± 0.039.

In the case of G14Y, the abundance fitness was -0.445 ± 0.07. In the case of G14L it was -0.24 ± 0.028. Regarding E21A, the abundance fitness is 0.017 ± 0.048. In the case of E21I it was 0.034 ± 0.069; in that of E21K, -0.017 ± 0.066. As for E21D, the figure is -0.028 ± 0.076; as for E21Q, -0.007 ± 0.066; as for E21W, -0.033 ± 0.044. In the case of E21H it was 0.027 ± 0.052; in that of E21V, 0.013 ± 0.035. On to E21F, for which the abundance fitness was -0.052 ± 0.054. In the case of E21T, the abundance fitness turned out to be 0.014 ± 0.055. Take E21M: the abundance fitness is -0.051 ± 0.069. With E21Y, the abundance fitness is -0.022 ± 0.042. As for E21G, the figure is 0.02 ± 0.047; as for E21S, -0.009 ± 0.036.

Turning to E12L, the abundance fitness is 0.017 ± 0.029.

On to E12N, for which the abundance fitness was 0.042 ± 0.066.

As to E12I, the abundance fitness was -0.198 ± 0.04. As for E12P, the figure is 0.036 ± 0.032; as for E12F, 0.006 ± 0.034. Turning to E12Q, the abundance fitness is 0.017 ± 0.057. In the case of E12H it was 0.009 ± 0.054; in that of E12C, -0.004 ± 0.049; in that of E12S, 0.022 ± 0.032. For E12G, the abundance fitness is -0.02 ± 0.041. As for E12Y, the figure is 0.016 ± 0.045. In the case of E12R it was 0.049 ± 0.034; in that of E12W, 0.005 ± 0.04; in that of E12M, 0.004 ± 0.043. As for E12D, the figure is -0.021 ± 0.049. With E12A, the abundance fitness is 0.036 ± 0.033. Turning to E12V, the abundance fitness is -0.064 ± 0.032. As for E12T, the figure is 0.034 ± 0.037. Take E12K: the abundance fitness was 0.077 ± 0.074. In the case of G4E it was -0.717 ± 0.048; in that of G4C, -0.905 ± 0.042; in that of G4T, -0.77 ± 0.039. As for G4P, the figure is -0.571 ± 0.035; as for G4D, -0.891 ± 0.038. As for G4N, the figure is -0.368 ± 0.029; as for G4H, -0.409 ± 0.029; as for G4R, -0.537 ± 0.024. With G4S, the abundance fitness was -0.109 ± 0.021.

In the case of G4Y, the abundance fitness is -0.81 ± 0.041. In the case of G4K it was -0.654 ± 0.041; in that of G4W, -1.05 ± 0.067; in that of G4A, -0.117 ± 0.025.

For G4Q, the abundance fitness is -0.428 ± 0.035. On to G4M, for which the abundance fitness is -0.997 ± 0.066. As for G4F, the figure is -0.866 ± 0.035.
